The text below walks through data of patent US7371553.

Read-outs that look alike come from different tables or passages of the source.

For series [1], the system named is T1, succinyl-AAPF-p-nitroanilide.
T1 sequence: AAPF

For series [2], the system named is T2, suc-AAPR-pNA.
T2 sequence: AAPR

The subject of series [3] is T3, suc-AAPA-pNA.
T3 sequence: AAPA

The test system of series [4] is T4, suc-AAPE-pNA.
T4 sequence: AAPE

In series [5] the target is T5, suc-AAPR-pNA.
T5 chain: AAPR

Series [6] concerns the target T6, suc-AAPE-pNA.
T6 chain: AAPE

For series [7], the target named is T7, succinyl-AAPF-p-nitroanilide.
T7 chain: AAPF

Series [8] concerns the target T8, suc-AAPA-pNA.
T8 chain: AAPA

One may read the KM as the substrate concentration at which the rate is half of its maximum. Regarding “SBL L217C (unmodified cysteine mutant, R = H)”, the KM in series [1] worked out at 800 µM. On the same count and under the same terms, in the case of SBL L217C-S-n-pentyl it was “KM 0.52±0.05 mM”; in that of “SBL L217C-a of Example 1 (sulfonatoethyl side chain)”, 1800 µM.

Consider “SBL L217C-a of Example 2 (aminoethyl side chain)”, for which, in series [1], the KM amounted to 640 µM.

Turning to “SBL L217C-b of Example 1 (4-carboxybutyl side chain)”, in series [1], the KM worked out at 1030 µM.

As to “SBL L217C-b of Example 2 (2-(trimethylammonium)ethyl side chain)”, the Michaelis constant (KM) in series [1] was 690 µM. As for “SBL L217C-c of Example 1 (3,5-dicarboxybenzyl side chain)”, the KM in series [1] was found to be 810 µM. Consider “SBL L217C-c of Example 2 (5,5-bis(aminomethyl)-3-oxo-hexyl side chain)”, for which the Michaelis constant (KM) in series [1] was found to be 2940 µM. Consider “SBL L217C-d of Example 1 (3,3-dicarboxybutyl side chain)”, for which the KM in series [1] amounted to 1650 µM. Consider “SBL L217C-d of Example 2 (2,2-bis(aminomethyl)-3-aminopropyl side chain)”, for which the KM in series [1] amounted to 2900 µM. On to “SBL L217C-e of Example 1 (3,3,4-tricarboxybutyl side chain)”, for which the KM in series [1] worked out at 1480 µM. “SBL N62C (unmodified cysteine mutant, R = H)”: the Michaelis-Menten constant (KM) in series [1] is 1900 µM.

SBL N62C-S-benzyl: in series [1], the KM entry is “KM 0.34±0.03 mM”.

Regarding SBL N62C-S-ethyl, the KM entry in series [1] was “KM 0.55±0.04 mM”. Take SBL N62C-S-n-pentyl: in series [1], the Michaelis-Menten constant (KM) result is reported as “KM 0.75±0.05 mM”. In the case of “SBL N62C-a of Example 1 (sulfonatoethyl side chain)”, in series [1], the KM came out at 930 µM. Turning to “SBL N62C-a of Example 2 (aminoethyl side chain)”, the KM in series [1] was 1000 µM. The same measure, in the same setting: as for “SBL N62C-b of Example 1 (4-carboxybutyl side chain)”, the figure is 1010 µM. With “SBL N62C-b of Example 2 (2-(trimethylammonium)ethyl side chain)”, the KM in series [1] was found to be 860 µM. In the case of “SBL N62C-c of Example 1 (3,5-dicarboxybenzyl side chain)”, the KM in series [1] amounted to 1000 µM.

As to “SBL N62C-c of Example 2 (5,5-bis(aminomethyl)-3-oxo-hexyl side chain)”, the KM in series [1] was determined as 1060 µM. With “SBL N62C-d of Example 1 (3,3-dicarboxybutyl side chain)”, the KM in series [1] turned out to be 1470 µM. Take “SBL N62C-d of Example 2 (2,2-bis(aminomethyl)-3-aminopropyl side chain)”: the KM in series [1] was 1170 µM.

“SBL N62C-e of Example 1 (3,3,4-tricarboxybutyl side chain)”: in series [1], the KM was 1460 µM. In the case of “SBL S156C (unmodified cysteine mutant, R = H)”, the Michaelis-Menten constant (KM) in series [1] came to 850 µM. For the molecule SBL S156C-S-benzyl, the KM entry in series [1] is reported as “KM 0.59±0.05 mM”.

In the case of “SBL S156C-a of Example 1 (sulfonatoethyl side chain)”, the KM in series [1] was found to be 1200 µM.

As to “SBL S156C-a of Example 2 (aminoethyl side chain)”, the KM in series [1] was 730 µM. Turning to “SBL S156C-b of Example 1 (4-carboxybutyl side chain)”, the KM in series [1] amounted to 1080 µM. As to “SBL S156C-b of Example 2 (2-(trimethylammonium)ethyl side chain)”, the KM in series [1] amounted to 740 µM.

Consider “SBL S156C-c of Example 1 (3,5-dicarboxybenzyl side chain)”, for which the Michaelis-Menten constant (KM) in series [1] was 1390 µM. For “SBL S156C-c of Example 2 (5,5-bis(aminomethyl)-3-oxo-hexyl side chain)”, the KM in series [1] amounted to 760 µM. With “SBL S156C-d of Example 1 (3,3-dicarboxybutyl side chain)”, the KM in series [1] amounted to 1670 µM.

As for “SBL S156C-d of Example 2 (2,2-bis(aminomethyl)-3-aminopropyl side chain)”, the KM in series [1] was 810 µM.

In the case of “SBL S156C-e of Example 1 (3,3,4-tricarboxybutyl side chain)”, the KM in series [1] is 1870 µM. On to “SBL S166C (unmodified cysteine mutant, R = H)”, for which the KM in series [1] is 500 µM. Consider SBL S166C-(CH2)2NMe3+, for which the KM in series [1] worked out at 1420 µM.

By kcat/KM is commonly meant the turnover number divided by the Michaelis constant. Turning to SBL S166C-S-CH2(CH2)2CH2COO-, in series [2], the KM came out at 8200 µM, the kcat/KM amounted to 41 M⁻¹ s⁻¹ and the “ΔΔG‡T = RT ln[(kcat/KM)WT/(kcat/KM)CMM]” value is “S166C-S-h -0.37”. Further, in series [1], the KM was found to be 1520 µM and the kcat/KM is 31000 M⁻¹ s⁻¹.

Take SBL S166C-S-CH2(CH2)8CH3: the KM in series [3] turned out to be 1900 µM; in series [1], 1090 µM. Also, the kcat/KM in series [3] stood at 3600 M⁻¹ s⁻¹; in series [1] it was 75000 M⁻¹ s⁻¹. The like results for SBL S166C-S-CH2-c-C6H11 were, in that order, 1900 µM, 700 µM, 14800 M⁻¹ s⁻¹ and 6900 M⁻¹ s⁻¹. For the molecule SBL S166C-S-CH2C6H4-3,5-(COO-)2, in series [2], the KM came to 5500 µM, the catalytic efficiency (kcat/KM) stood at 120 M⁻¹ s⁻¹ and the “ΔΔG‡T = RT ln[(kcat/KM)WT/(kcat/KM)CMM]” value is “S166C-S-d -1.00”. For the same molecule, in series [1], the KM is 1600 µM and the kcat/KM is 29000 M⁻¹ s⁻¹. Turning to SBL S166C-S-CH2C6H5, in series [3], the KM was 800 µM and the kcat/KM turned out to be 9000 M⁻¹ s⁻¹. Moreover, in series [1], the KM was 1170 µM and the kcat/KM was determined as 20000 M⁻¹ s⁻¹.

In the case of SBL S166C-S-CH2CH2C(CH3)(COO-)2, in series [2], the KM came out at 5300 µM, the kcat/KM was determined as 80 M⁻¹ s⁻¹ and the “ΔΔG‡T = RT ln[(kcat/KM)WT/(kcat/KM)CMM]” value is given as “S166C-S-1-0.76”. In series [1], the KM is 2260 µM and the kcat/KM was 30000 M⁻¹ s⁻¹. With SBL S166C-S-CH2CH2C(COO-)3, in series [2], the KM is 5200 µM, the kcat/KM is 200 M⁻¹ s⁻¹ and the “ΔΔG‡T = RT ln[(kcat/KM)WT/(kcat/KM)CMM]” value is on record as “S166C-S-j -1.31”. In series [1], the Michaelis-Menten constant (KM) came out at 2460 µM and the kcat/KM was found to be 31000 M⁻¹ s⁻¹. As to SBL S166C-S-CH2CH2NH3+, the values for the KM in series [4] and in series [1] were 1900 µM and 680 µM, respectively. Further, the kcat/KM in series [4] amounted to 7600 M⁻¹ s⁻¹; in series [1] it was 74000 M⁻¹ s⁻¹. The “kcat/KM substrate screen (FIG. 10)” value in series [3] was “the substrate screen (FIG. 10) shows that suc-AAPA-pNA and suc-AAPR-pNA are poorer substrates”; in series [2], “the substrate screen (FIG. 10) shows that suc-AAPA-pNA and suc-AAPR-pNA are poorer substrates”.

For the molecule SBL S166C-S-CH2CH2SO3-, in series [2], the KM amounted to 3400 µM, the kcat/KM is 50 M⁻¹ s⁻¹ and the “ΔΔG‡T = RT ln[(kcat/KM)WT/(kcat/KM)CMM]” value is “S166C-S-b -0.49”. In series [1], the KM stood at 1340 µM and the kcat/KM was 19000 M⁻¹ s⁻¹.

Turning to SBL S166C-S-ethyl, in series [1], the KM entry is on record as “KM0.76±0.08 mM”. For the molecule “SBL S166C-c of Example 2 (5,5-bis(aminomethyl)-3-oxo-hexyl side chain)”, the KM in series [1] amounted to 1270 µM.

“SBL S166C-d of Example 2 (2,2-bis(aminomethyl)-3-aminopropyl side chain)”: the KM in series [1] was determined as 1160 µM.

B1: subtilisin Bacillus lentus, wild type (protein)
chain: AQSVPWGISRVQAPAAHNRGLTGSGVKVAVLDTGISTHPDLNIRGGASFVPGEPSTQDGNGHGTHVAGTIAALNNSIGVLGVAPSAELYAVKVLGASGSGSVSSIAQGLEWAGNNGMHVANLSLGSPSPSATLEQAVNSATSRGVLVVAASGNSGAGSISYPARYANAMAVGATDQNNNRASFSQYGAGLDIVAPGVNVQSTYPGSTYASLNGTSMATPHVAGAAALVKQKNPSWSNVQIRNHLKNTATSLGSTNLYGSGLVNAEAATR
In the case of B1, the KM in series [5] is 7200 µM; in series [6], 4400 µM; in series [7], 730 µM; in series [8], 2000 µM. Further, the catalytic efficiency (kcat/KM) stood at 22 M⁻¹ s⁻¹ in series [5], 400 M⁻¹ s⁻¹ in series [6], 209000 M⁻¹ s⁻¹ in series [7] and 8800 M⁻¹ s⁻¹ in series [8].
